The text below walks through data of PMC10689493 (Nature Communications, 2023).

A word on the Kd: it is the free concentration of one partner at which half of the binding sites on the other are occupied at equilibrium, for simple one-to-one binding. A lower Kd goes with tighter binding.

Assay [1] addresses biotinylated SARS-CoV-2 Spike protein (WA-2, 2 P) (SARS-CoV-2 WA-2 (entry: reference …, UniProt P0DTC2, stabilised, biotinylated)).
The next assay has as its target T1, S2hlx-7 epitope scaffold (synthetic design (Rhodopseudomonas …)).
T1 construct: source: E. coli BL-21 (DE3), purified (Ni-NTA, SEC)
T1 chain: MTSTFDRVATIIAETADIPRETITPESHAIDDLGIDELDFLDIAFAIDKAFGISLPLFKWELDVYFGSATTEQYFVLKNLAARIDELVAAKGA
The experiment in a line: SPR. As to conditions: both partners purified.

In assay [2] the target is T2, synthesized SARS-CoV-2 stem helix peptide (residues 1147-1161) (SARS-CoV-2, UniProt P0DTC2).
T2 construct: source: synthetic peptide
The experiment in a line: ELISA. As to conditions: both partners purified. In general terms: An ELISA detects its analyte on a solid surface through an enzyme-linked reagent.

In assay [3] the target is T3, synthesized stem helix peptide (1140-1164) (SARS-CoV-2, UniProt P0DTC2).
T3 chain: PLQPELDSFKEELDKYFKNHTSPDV
The experiment in a line: ELISA. As to conditions: both partners purified.

The target of assay [4] is T4, S2hlx-Ex19 epitope scaffold (synthetic design (Mus musculus VPS54 …)).
T4 construct: source: E. coli BL-21 (DE3), purified (Ni-NTA, SEC)
T4 chain: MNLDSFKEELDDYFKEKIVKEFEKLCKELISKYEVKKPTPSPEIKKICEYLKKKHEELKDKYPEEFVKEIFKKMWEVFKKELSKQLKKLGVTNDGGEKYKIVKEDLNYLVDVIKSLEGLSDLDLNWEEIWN
The experiment in a line: SPR. As to conditions: both partners purified.

The next assay concerns the target OC43 Spike protein, 2 P (human coronavirus OC43, isolate not …, UniProt P36334, stabilised). Briefly: ELISA. To be noted: both partners purified.

B1: DH1501.2 (antibody, V domains shown)
VH: EVQLVESGAEVKKPGASVRLSCKASGDTFNNKYVHWVRQAPGQGLEWMGLINPSGSGTAFAQKFQGRVSMTRDTSTRTVYLGLTSLTYEDTAVYYCARMSRAGTFDIWDQGTMVTVSS
VL: EIVLTQSPGTLSLSPGDRATLSCRASENVGTSYLAWYQQKPGQAPRLLISGTSSRATGVPDRFSGSGSGRDFTLTISRLEPEDFAVYYCQQYGSSPPRYTFGQGTKLDMK
For B1, the binding result in assay [1] is given as “binds”.

B2: DH1057.1 mAb (antibody, V domains shown)
VH: EVQLVESGTEVKKPGASVKVSCKTSGYIFTNYYIHWVRQAPGQGLEWMGIFNPNGGGTSYAQKFQGRITLTGNTSANTGYMVLRSLTSEDTAVYYCARDPRTSGDNDGFDMWGQGTKVTVSS
VL: VLTQSPATLSLSPGERATLSCRASQSLSSYNYLAWYQQKPGQAPRLLIYAASKRATGIPARFSGSGSGTDFTLTISSLEPEDFAVYFCQQRSNRPPAWTFGQGTKVEIK
notes: source: Expi293F, transfected, purified (Protein A)
For B2, the “fold better binding than spike” value in the assay with S2hlx-7 epitope scaffold is above 10 fold. The binding result in assay [2] and in assay [3] was “binds” in each case.

B3: DH1501.1 (antibody, V domains shown)
VH: EVQLVESGAEVKKPGASVRVSCKASGFTFTDHYMHWVRQAPGQGLEWMGLINPTGVNTFYAQNFRGRVTMTRDTSTKTDYLEVRSLTSQDTAMYYCARMSRYGAFDIWGQGTMVTVSL
VL: EIVLTQSPGTLSLSPGERATLSCRASQSVGSGYLAWYQQKPGQAPRLLIYGASVRATGIPDRFSGSGSGTDFSLTINRVEPEDFAMYYCQNYGSSPPRYTFGQGTKLEIK
B3: in assay [1], the binding result was “binds”.

B4: CC40.8 mAb (antibody, V domains shown)
VH: EVQLLESGGGLVQPGGSLRLSCAASGFTFSSYVMTWARQAPGKGLEWVSAISGTGYTYYADSVKGRFTVSRDNSKNTLFLQMSSLRAEDTAVYYCAITMAPVVWGQGTTVTVSS
VL: SYELTQPPSVSVSPGQTARITCSGDALPKRYAYWYQQKSGQAPILVIYEDKKRPSGIPERLSGSKSGTVATLTISGAQVEDEADYYCYSTDSSGNHAVFGGGTQLTVL
notes: IgG; source: Expi293F, transfected, purified (Protein A)
In the case of B4, the Kd in assay [4] turned out to be 6.7 nM. Moreover, the binding result was “binds” in the assay with OC43 Spike protein, 2 P and “no binding” in assay [2].

B5: S2P6 mAb (antibody, V domains shown)
VH: EVQLVQSGAEVKKPGASVKVSCKASGYTFTSQYMHWVRQAPGQGLEWIGIINPSGVHTSYAQKFQGRVTLTRDTSTSTLYMELSSLRSEDTAVYYCARGSPKGAFDYWGQGTLVTVSS
VL: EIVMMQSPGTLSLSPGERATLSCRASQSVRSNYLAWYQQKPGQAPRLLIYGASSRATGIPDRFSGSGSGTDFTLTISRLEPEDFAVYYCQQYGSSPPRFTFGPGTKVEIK
notes: IgG; IGHV1-46/IGKV3-20; source: Expi293F, transfected, purified (Protein A)
Turning to B5, in the assay with OC43 Spike protein, 2 P, the binding result was “binds”.

B6: DH1501.3 (antibody, V domains shown)
VH: QVQLVQSGAEVKKPGASVRLSCKASGDTFTNEYVQWVRQAPGQGLEWMGLINPSGSGTAFARNFQGRVSMTRDTSTRTVYMDLTSLRYEDTAVYYCARMSRAGTFDLWGQGTMVTVSS
VL: EIVLTQSPDTLSLSLGERATLFCRASETIDSRYLAWYQQKPGRAPRLLMSGTSVRATGIPDRFSGSGSGTDFTLTITRLEPEDFAVYYCQQYGSSPPRYTFGQGTKLAMK
For B6, the binding result in assay [1] was “binds”.
